Source: PMC6647844

Biological target: tetra-methyl rhodamine-labeled Aβ42 (TMR-Aβ) (UniProt P05067)
Assay: other fluorescence titration

Sequence of tetra-methyl rhodamine-labeled Aβ42 (TMR-Aβ) (P05067 672-713): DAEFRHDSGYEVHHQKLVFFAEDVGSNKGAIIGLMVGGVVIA

For “granulin-3, fully reduced (rGRN-3) (from UniProt P28799 206-261) (natural protein)”, which Kd is on record?
Its Kd is 2550 nM.
